From patent publication US20240309103A1 (Regeneron, published 2024)

Key:
[1] = target: T1, mfNPR1-mFc (monkey); assay: SPR, mAb captured, 37C
T1 construct: also called dimeric monkey NPR1
T1 chain: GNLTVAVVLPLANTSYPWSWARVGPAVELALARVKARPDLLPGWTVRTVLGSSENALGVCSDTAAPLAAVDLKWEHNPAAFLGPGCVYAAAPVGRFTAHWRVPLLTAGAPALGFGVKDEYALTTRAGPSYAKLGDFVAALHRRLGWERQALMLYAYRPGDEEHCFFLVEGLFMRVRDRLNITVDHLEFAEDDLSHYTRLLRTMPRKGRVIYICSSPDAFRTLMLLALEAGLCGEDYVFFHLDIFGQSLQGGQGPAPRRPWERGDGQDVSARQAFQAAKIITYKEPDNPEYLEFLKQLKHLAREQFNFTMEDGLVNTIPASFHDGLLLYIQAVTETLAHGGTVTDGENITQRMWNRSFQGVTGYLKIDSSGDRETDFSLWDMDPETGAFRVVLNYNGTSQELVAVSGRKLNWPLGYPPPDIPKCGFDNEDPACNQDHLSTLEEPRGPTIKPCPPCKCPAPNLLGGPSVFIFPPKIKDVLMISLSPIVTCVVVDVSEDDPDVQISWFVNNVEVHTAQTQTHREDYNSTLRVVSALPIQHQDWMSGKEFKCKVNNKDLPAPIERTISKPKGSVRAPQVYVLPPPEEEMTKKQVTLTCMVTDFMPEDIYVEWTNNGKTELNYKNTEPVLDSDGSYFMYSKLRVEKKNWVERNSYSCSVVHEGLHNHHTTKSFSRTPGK
Protocol: (§1) Equilibrium dissociation constant (KD) for different NPR1 reagents binding to purified anti-NPR1 monoclonal antibodies (mAbs) were determined using a real-time surface plasmon resonance based Biacore 4000 biosensor. All binding studies were performed in 10 mM HEPES, 150 mM NaCl, 3 mM EDTA, and 0.05% v/v Surfactant Tween-20, pH 7.4 (HBS-ET) running buffer at 25° C. and 37° C. The Biacore CM5 sensor chip surface was first derivatized by amine coupling with either mouse anti-human Fc specific mAb (GE Healthcare, #BR100839) or goat anti-human Fcy specific polyclonal antibody (Jackson ImmunoResearch Laboratories, #BR-1008-39) to capture anti-NPR1 mAbs.

[2] = target: T2, hNPR1-mFc:hBNP complex (human, UniProt P16860 103-134); assay: SPR, mAb captured, 37C
T2 construct: also called human NPR1 complexed to BNP
Protocol: as §1

[3] = target: T3, hNPR1-mFc:hANP or hNPR1-hFc:hANP complex (human, UniProt P01160 124-151); assay: SPR, mAb captured, 37C
T3 construct: also called human NPR1 complexed to ANP
Protocol: as §1

[4] = target: T4, mfNPR1-mFc:hANP complex (monkey; human, UniProt P01160 124-151); assay: SPR, mAb captured, 37C
T4 construct: also called monkey NPR1 complexed to ANP
Protocol: as §1

[5] = target: T5, mfNPR1-mFc:hBNP complex (monkey; human, UniProt P16860 103-134); assay: SPR, mAb captured, 25C
T5 construct: also called monkey NPR1 complexed to BNP
Protocol: as §1

[6] = target: T2, hNPR1-mFc:hBNP complex; assay: SPR, mAb captured, 25C
Protocol: as §1

[7] = target: T3, hNPR1-mFc:hANP or hNPR1-hFc:hANP complex; assay: SPR, mAb captured, 25C
Protocol: as §1

[8] = target: T4, mfNPR1-mFc:hANP complex; assay: SPR, mAb captured, 25C
Protocol: as §1

[9] = target: T1, mfNPR1-mFc; assay: SPR, mAb captured, 25C
Protocol: as §1

B1: mAb25545 (antibody, human IgG4, V domains shown)
VH: QVQLVESGGGLVKPGGSLRLSCAASGFTFSDYHLSWIRQAPGKGLEWVSYIRSSGRTIDYAASVKGRFTISRDNAKNSLYLQMNSLRVEDTAVYYCARENWIVLKVYAGIVGAPLDQWGQGTLVTVSS
VL: not shown
[1]
  100 nM Ag Bound (RU): 26 RU
  Kd: 2.62 nM
  koff: 0.000144 s⁻¹
  kon: 55100 M⁻¹ s⁻¹
  t½: 1.33 h
[2]
  100 nM Ag Bound (RU): 56 RU
  Kd: 2.85 nM
  koff: 9.84e-05 s⁻¹
  kon: 34600 M⁻¹ s⁻¹
  t½: 1.95 h
[3]
  100 nM Ag Bound (RU): 58 RU
  Kd: 2.35 nM
  koff: 8.61e-05 s⁻¹
  kon: 36700 M⁻¹ s⁻¹
  t½: 2.24 h
[4]
  100 nM Ag Bound (RU): 86 RU
  Kd: 2.04 nM
  koff: 8.18e-05 s⁻¹
  kon: 40100 M⁻¹ s⁻¹
  t½: 2.35 h
[5]
  100 nM Ag Bound (RU): 42 RU
  Kd: 2.08 nM
  koff: 4.97e-05 s⁻¹
  kon: 23900 M⁻¹ s⁻¹
  t½: 3.88 h
[6]
  100 nM Ag Bound (RU): 27 RU
  Kd: 2.72 nM
  koff: 6.26e-05 s⁻¹
  kon: 23000 M⁻¹ s⁻¹
  t½: 3.08 h
[7]
  100 nM Ag Bound (RU): 28 RU
  Kd: 1.98 nM
  koff: 4.63e-05 s⁻¹
  kon: 23400 M⁻¹ s⁻¹
  t½: 4.16 h
[8]
  100 nM Ag Bound (RU): 45 RU
  Kd: 2.35 nM
  koff: 5.37e-05 s⁻¹
  kon: 22800 M⁻¹ s⁻¹
  t½: 3.58 h

B2: mAb22805 (antibody, human IgG4, V domains shown)
VH: QVQLVESGGGVVQPGRSLRLSCAASGFTFSTYGMHWVRQAPGKGLEWVALIWNDGSNKYYADSVKGRFTISRDNSKNTLDLQMNSLRAEDTAVYYCARLNTRITGTTNLDYWGQGTLVTVSS
VL: DIQMTQSPSSLSASVGDRVTVSCRASQSIANYLNWYQQKPGKAPNLLIYGAYTLQSGVPSRFRGSGSGTDFTLTISSLQPEDFATYYCQQTYSTPPITFGQGTRLEIK
[2]
  100 nM Ag Bound (RU): 112 RU
  Kd: 6.02 nM
  koff: 0.000313 s⁻¹
  kon: 52000 M⁻¹ s⁻¹
  t½: 0.615 h
[3]
  100 nM Ag Bound (RU): 113 RU
  Kd: 4.91 nM
  koff: 0.000295 s⁻¹
  kon: 60100 M⁻¹ s⁻¹
  t½: 0.653 h
[4]
  100 nM Ag Bound (RU): 153 RU
  Kd: 3.3 nM
  koff: 0.000209 s⁻¹
  kon: 63300 M⁻¹ s⁻¹
  t½: 0.922 h
[5]
  100 nM Ag Bound (RU): 113 RU
  Kd: 2.12 nM
  koff: 9.6e-05 s⁻¹
  kon: 45300 M⁻¹ s⁻¹
  t½: 2.01 h
[6]
  100 nM Ag Bound (RU): 84 RU
  Kd: 3.68 nM
  koff: 0.000152 s⁻¹
  kon: 41400 M⁻¹ s⁻¹
  t½: 1.26 h
[7]
  100 nM Ag Bound (RU): 84 RU
  Kd: 3.28 nM
  koff: 0.000141 s⁻¹
  kon: 43100 M⁻¹ s⁻¹
  t½: 1.36 h
[8]
  100 nM Ag Bound (RU): 116 RU
  Kd: 1.96 nM
  koff: 9.51e-05 s⁻¹
  kon: 48400 M⁻¹ s⁻¹
  t½: 2.02 h

B3: mAb22033 (antibody, human IgG4, V domains shown)
VH: QVQLVQSGAEVKKPGASVTVSCKASGYTFTDYYMHWVRQAPGQGLEWMGWIKPNSGGTNSAQRFQGRITMTWDTSISTAYMELSRLRSDDTAVYYCSRGGPVMNYYYYYGMDVWGQGTTVTVSS
VL: NIQMTQSPSSLSASVGDRVTITCRASQSIDSYLNWYQQKPGKAPKLLIYVASSLQSGVPSRFSGSGSGKDFTLTISSLQPEDFATYYCQQSYSIPTFGQGTRLEIK
[1]
  100 nM Ag Bound (RU): 126 RU
  Kd: 2.06 nM
  koff: 9.9e-05 s⁻¹
  kon: 48200 M⁻¹ s⁻¹
  t½: 1.95 h
[2]
  100 nM Ag Bound (RU): 108 RU
  Kd: 1.79 nM
  koff: 9.6e-05 s⁻¹
  kon: 53700 M⁻¹ s⁻¹
  t½: 2 h
[3]
  100 nM Ag Bound (RU): 108 RU
  Kd: 1.69 nM
  koff: 9.8e-05 s⁻¹
  kon: 57900 M⁻¹ s⁻¹
  t½: 1.97 h
[4]
  100 nM Ag Bound (RU): 169 RU
  Kd: 1.31 nM
  koff: 8.9e-05 s⁻¹
  kon: 68000 M⁻¹ s⁻¹
  t½: 2.16 h
[5]
  100 nM Ag Bound (RU): 132 RU
  Kd: 0.781 nM
  koff: 5.15e-05 s⁻¹
  kon: 65900 M⁻¹ s⁻¹
  t½: 3.74 h
[9]
  100 nM Ag Bound (RU): 96 RU
  Kd: 0.938 nM
  koff: 4.85e-05 s⁻¹
  kon: 51700 M⁻¹ s⁻¹
  t½: 3.97 h
[6]
  100 nM Ag Bound (RU): 85 RU
  Kd: 1.23 nM
  koff: 6.67e-05 s⁻¹
  kon: 54300 M⁻¹ s⁻¹
  t½: 2.89 h
[7]
  100 nM Ag Bound (RU): 84 RU
  Kd: 1.43 nM
  koff: 8.6e-05 s⁻¹
  kon: 60300 M⁻¹ s⁻¹
  t½: 2.24 h
[8]
  100 nM Ag Bound (RU): 133 RU
  Kd: 0.815 nM
  koff: 5.36e-05 s⁻¹
  kon: 65800 M⁻¹ s⁻¹
  t½: 3.59 h

B4: mAb22810 (antibody, human IgG4, V domains shown)
VH: EVQLVESGGGLVKPGGSLRLSCVVSGFTFRIYTMNWVRQAPGKGLEWVASISSSSSFINYADSLKGRFTISRDNAQNSLYLQMNSLRAEDTAIYYCARAAGNDVLPGRMDVWGQGTSVTVSS
VL: EIVLTQSPGTLSLSPGERATLSCRASQSVSSNYLAWYQQKPGQVPSLLIYGASSRATGIPDRFSGSGSGTDFTLTITRLEPEDFAVYYCQQYGISPWTFGQGTKVEIK
[3]
  100 nM Ag Bound (RU): 26 RU
  Kd: 75.5 nM
  koff: 0.00104 s⁻¹
  kon: 13700 M⁻¹ s⁻¹
  t½: 0.183 h
[7]
  100 nM Ag Bound (RU): 14 RU
  Kd: 41.4 nM
  koff: 0.000344 s⁻¹
  kon: 8310 M⁻¹ s⁻¹
  t½: 0.567 h

B5: mAb25502 (antibody, human IgG4, V domains shown)
VH: QLQLQESGPGLVKPSETLSLTCTVSGGSISSSSYYWGWIRQPPGKGLEWIGSIYYSGSPYYIPSLKSRVTISVDTSKNQFSLKLSSVTAADTAMYYCARQGRGIARAGPFDYWGQGTLVTVSS
VL: DIQMTQSPSSLSASVGDRVTITCRASQGISNYLAWYQEKPGKVPKLLIYAASTLQSGVPSRFSGSGSGTDFTLTITSLQSEDVATYYCQKYNSAPPWTFGQGTKVEIK
[2]
  100 nM Ag Bound (RU): 102 RU
  Kd: 7.82 nM
  koff: 0.000472 s⁻¹
  kon: 60300 M⁻¹ s⁻¹
  t½: 0.408 h
[3]
  100 nM Ag Bound (RU): 105 RU
  Kd: 6.49 nM
  koff: 0.000467 s⁻¹
  kon: 72000 M⁻¹ s⁻¹
  t½: 0.412 h
[4]
  100 nM Ag Bound (RU): 143 RU
  Kd: 5.76 nM
  koff: 0.000524 s⁻¹
  kon: 91000 M⁻¹ s⁻¹
  t½: 0.367 h
[5]
  100 nM Ag Bound (RU): 110 RU
  Kd: 4.08 nM
  koff: 0.000282 s⁻¹
  kon: 69000 M⁻¹ s⁻¹
  t½: 0.683 h
[9]
  100 nM Ag Bound (RU): 22 RU
  Kd: 1.6 nM
  koff: 0.000141 s⁻¹
  kon: 88300 M⁻¹ s⁻¹
  t½: 1.37 h
[6]
  100 nM Ag Bound (RU): 78 RU
  Kd: 3.4 nM
  koff: 0.000236 s⁻¹
  kon: 69400 M⁻¹ s⁻¹
  t½: 0.817 h
[7]
  100 nM Ag Bound (RU): 81 RU
  Kd: 4.17 nM
  koff: 0.000253 s⁻¹
  kon: 60600 M⁻¹ s⁻¹
  t½: 0.762 h
[8]
  100 nM Ag Bound (RU): 113 RU
  Kd: 3.56 nM
  koff: 0.000264 s⁻¹
  kon: 74000 M⁻¹ s⁻¹
  t½: 0.73 h
